# Measurements from patent US20260022364A1, “ERT2 MUTANTS, INDUCIBLE CELL DEATH SYSTEMS, AND USES THEREOF” (Senti Biosciences, Inc., priority 2023, published 2026).
# Residue numbers refer to the chain shown, from its start. In names and notes the source's numbering stands.
# B1: SB07351: suicide-switch construct ERT2*mut-Casp9-IRES-RFP with mut81 (protein)
# chain: AGDMRAANLWPSPLMIKRSKKNSLALSLTADQMVSALLDAEPPILYSEYDPTRPFSEASMMGLLTNLADRELVHMINWAKRVPGFVDLTLHDQVHLLECAWMEILMIGVVWRSMEHPVKLLFAPNLLLDRDQGKCVEGLVEIFDMLLATSSRFRMMNLQGEEFVCLKSIILLNSGVYTFLPSTLKSLEEKDHIHRVLDKITDTLIHLMAKAGLTLQQQHQRLAQLLLILSHIRHMSNKGMELLYSMKCKNVVPLYDLLLEAADAHRLHAPTSRGGASVEETDQSHLATAGSTSSHSLQKYYITGEAEGFPAT
# B2: wild-type ERT2: ERT2 with G400V/M543A/L544A/V595A, SEQ ID NO: 3; benchmark construct (protein)
# chain: SAGDMRAANLWPSPLMIKRSKKNSLALSLTADQMVSALLDAEPPILYSEYDPTRPFSEASMMGLLTNLADRELVHMINWAKRVPGFVDLTLHDQVHLLECAWLEILMIGLVWRSMEHPVKLLFAPNLLLDRNQGKCVEGMVEIFDMLLATSSRFRMMNLQGEEFVCLKSIILLNSGVYTFLSSTLKSLEEKDHIHRVLDKITDTLIHLMAKAGLTLQQQHQRLAQLLLILSHIRHMSNKGMEHLYSMKCKNVVPLYDLLLEAADAHRLHAPTSRGGASVEETDQSHLATAGSTSSHSLQKYYITGEAEGFPATA
# B3: SB09626: ERT2 mutant transcriptional switch construct pSFFV: ZF10-1_p65_ERT2 domain (Table 23) (protein)
# chain: B2 chain with L73I, N132D, M140L, S182P, H243L
# modifications: ERT2 domain of ZF10-1_p65_ERT2 construct
# B4: SB09642: ERT2 mutant transcriptional switch construct pSFFV: ZF10-1_p65_ERT2 domain (Table 23) (protein)
# chain: B2 chain with L103M, L128V, N132D, M140L, S182P, H243L
# modifications: ERT2 domain of ZF10-1_p65_ERT2 construct
# B5: SB09652: ERT2 mutant transcriptional switch construct pSFFV: ZF10-1_p65_ERT2 domain (Table 23) (protein)
# chain: B2 chain with L73I, L110V, N132D, M140L, S182P, M236A, H243L
# modifications: ERT2 domain of ZF10-1_p65_ERT2 construct
# B6: SB09657: ERT2 mutant transcriptional switch construct pSFFV: ZF10-1_p65_ERT2 domain (Table 23) (protein)
# chain: B2 chain with L73I, L103M, N132D, S182P, H243L
# modifications: ERT2 domain of ZF10-1_p65_ERT2 construct
# What was measured:
# [1] = cited from earlier work; for estimated concentration in the brain, tissue, organs, and solid tumors / estimated concentration in the serum: tamoxifen orally 20 mg/day
# [2] = tested on: primary T cells; experiment: Killing assay of safety kill switch in transduced primary T cells; type: cell-based
# Procedure: Primary T cells isolated from a donor were thawed and stimulated with Dynabeads for 24 hours. Next, ERT2*mut81-Casp9-IRES-RFP (SB07351, prepared as lentivirus) was transduced into the T cells. Two days post transduction, cell media were replaced with T Cell media containing IL-2 to promote expansion. 1 week post transduction, cells were quantified for transduction efficiency (Safety kill switch transduction was tracked by expression of RFP tag) by flow cytometry and then loaded into incucyte for quantification of killing efficiency.
# • D0-D1: Expansion of cells in drug free T cell media (with IL-2) • D1-onward: Drug free T cell media (with IL-2) was exchanged with media containing indicated drug conditions (as well as IL-2) • Killing efficiency was calculated by the following formula:
# 1−(RFP expression of cells in drug treated conditions)/(RFP expression of transduced cells in the No Drug condition)
# [3] = tested on: HEK293T cells; experiment: Suicide-switch assay, killing efficiency by incucyte; type: cell-based; settings: for killing efficiency: 48 hours
# Procedure: A 24-well dish was seeded with 25,000 Lent-X HEK293T cells (Takara, Catalog #: 632180). The next day, the cells were transduced with 25,000 pg of virus for constructs SB07351-SB07354: ERT2mut-casp9 constructs tagged with mCherry to track successfully transduced cells in a population. The constructs each take the form ERT2*mut-Casp9-IRES-RFP (SB07351=mut81; SB07352=mut88; SB07353=mut63; SB07354=mut41). The next day, transduced cells were split into a 96-well plate with ˜5,000 cells in each well and loaded into an incucyte to quantify cell expansion via images every 2 hours detecting mCherry expression. Media was exchanged 24 hours later with new media with indicated concentration of 4-OHT or no drug added. Cells continued to be imaged by the incucyte every 2 hours for 48 hours post exchange of media.
# Cell death was quantified via detection of suicide-switch linked mCherry expression using the following formula:
# Killing efficiency=100−((mCherry expression in drug treated population)/(mCherry expression in ND population)) [NOTE: mCherry background prevents 100% KE from being calculated; >95% killing efficiency is considered complete killing in this assay]
# [4] = tested on: HEK293T cells; experiment: Time course of ERT2 mutant safety switch activity in HEK cells; type: cell-based
# Procedure: Twenty-four hours later, ˜3k transduced cells were plated into each well of a 96w plate and cultured in 100 μL of drug-free growth media (DMEM+10% FBS, 1% p-s, 1% Glutamax).
# Killing efficiency was calculated by taking the average mCherry area quantified by the incucyte in the drug treated sample divided by the mCherry area quantified in the ND conditions of the same transduced population and subtracting that fraction from 1. 95% KE was defined as complete killing by previous studies with this same mCherry reporter being treated with Puromycin, a toxic drug that results in complete killing of HEK293T cells within 48 hours of application.
# [5] = tested on: U87MG: 1066 cells; experiment: Modified ER-LBD validation in U87MG with mCherry reporter; type: cell-based; settings: SB01066 reporter
# Procedure: About 16 hours before transduction 100k U87MG: 1066 cells were seeded into 16 wells in 12 well plate format. During transduction, cells in each well were transduced with 100k pg of virus of ERT2 variant constructs. After transduction, cells were split into 50k cells per well in a 24 well plate format, and treated with drug-free media or a range of endoxifen or 4-OHT drug conditions. About two days after treatment of cells with endoxifen or 4-OHT, cells were collected and mCherry reporter expression was quantified by flow cytometry.
# Screening of the modified ER-LBD construct library identified a subset of ERT2 variants that were sensitive to endoxifen at 1 nM. Among this subset, 15 variants (Table 19) were validated in U87MG cells for their ability to activate an mCherry reporter (SB01066; FIG. 14B) at a range of concentrations of 0 pM, 10 pM, 50 pM, 100 pM, and 1 nM of endoxifen (FIG. 15A) and 4-OHT (FIG. 15B). Expression of mCherry was quantified about […] after treatment with endoxifen or 4-OHT.
# Select ERT2 variants (Table 20) from the previous screens were further tested for sensitivity to endoxifen and 4-OHT, compared to wild-type ERT2. […] Fold activation was calculated by gMFI mCherry levels of each test condition divided by gMFI mCherry levels of U87MG cells transduced with the reporter (SB01066).
# [6] = tested on: U87MG: 2357 reporter cell line; experiment: ERT2 mutant transcriptional switch inducing an IL-12 payload (IL-12p70 ELISA); type: cell-based; settings: 72 hours
# Procedure: FIG. 28A depicts constructs and experimental methods for evaluating exemplary ERT2 mutant transcriptional switches for inducing expression of an IL-12 payload. U87MG cells were transduced with construct SB02357, comprising synthetic promoter comprising a 4×ZF-10 zinc finger binding site (SEQ ID NO: 59) linked to a minimal promoter operably linked to an IL-12 encoding sequence. This generated a U87MG: 2357 reporter cell line used for assessing the ability of ERT2 transcriptional switch constructs to activate transcription of the IL-12 payload in a ligand-dependent manner.
# 25k U87MG: 2357 IL-12 payload transduced line was transduced with MOI of 1 of the ERT2 constructs SB03422, SB06149, SB09626, SB09642, SB09652, and SB09657, which are described in Example 9. […] The next day, cells were split into ND or drug titration conditions to evaluate performance at a range of Endoxifen and concentrations. 72 hours later, supernatant was harvested for quantification of IL-12 by IL-12p70 ELISA. IL-12 levels were read with a spectrophotometer at wavelength 450 nm with wavelength correction to 540 nm according to manufacturer's protocol. A kit-provided standard to calculate detected levels of IL-12 in 100 μL of media harvested from ˜100k cells based on OD.
# [7] = tested on: U87MG: 1066 reporter cell line; experiment: ERT2 mutant transcriptional switch activity, mCherry reporter; type: cell-based; settings: range of endoxifen concentrations
# Procedure: FIG. 26A depicts constructs and experimental methods for evaluating exemplary ERT2 mutant transcriptional switches. U87MG cells were transduced with the mCherry reporter construct SB01066, comprising synthetic promoter comprising a 4×ZF-10 zinc finger binding site (SEQ ID NO: 59) linked to a minimal promoter operably linked to an mCherry encoding sequence. This generated a U87MG: 1066 reporter cell line used for assessing transcriptional switch activity of ERT2 transcriptional switch constructs.
# 25k U87MG: 1066 reporter transduced line was transduced at a MOI of 1 with various ERT2 transcriptional switch constructs having the following structure: pSFFV: ZF10-1 (zinc finger DNA binding domain, SEQ ID NO: 84)_TCR linker (SEQ ID NO: 86)_p65 (transcriptional activation domain, SEQ ID NO: 64)_[…] linker (SEQ ID NO: 88)_ERT2 domain. The ERT2 mutants included a number of amino acid substitutions in addition to the “WT ERT2” mutations G400V/M543A/L544A/V595A.
# The next day, cells were split into no drug or drug titration conditions to evaluate performance at a range of endoxifen and estradiol concentrations. Performance of each ERT2 mutant transcriptional switch was evaluated by their ability to translocate and bind to the zinc finger binding site upstream of mCherry and initiate mCherry expression.
# The background normalized ND (0) conditions were divided by the average NV gMFI mCherry value in order to reflect any basal activity seen by each mutant. FIG. 26C depicts induced mCherry expression plotted against basal activity for each of the tested ERT2 transcriptional switch constructs.
molecule,measurement,setting,value
"CC/C(=C(\c1ccc(O)cc1)c1ccc(OCCN(C)C)cc1)c1ccccc1 [Construct 4-OHT, 4-hydroxytamoxifen]","estimated concentration in the brain, tissue, organs, and solid tumors",[1],0.4 nM
same,estimated concentration in the serum,[1],0.04 nM
CC/C(=C(\c1ccccc1)c1ccc(OCCN(C)C)cc1)c1ccccc1 [tamoxifen],average peak plasma concentration,[1]; typical clinical dose of tamoxifen,approximately 40 ng/ml
CC/C(=C(\c1ccc(O)cc1)c1ccc(OCCNC)cc1)c1ccccc1 [endoxifen],"estimated concentration in the brain, tissue, organs, and solid tumors",[1],2.5 nM
same,estimated concentration in the serum,[1],0.25 nM
B1,time to complete killing,[2]; 2.5 nM Endoxifen & 0.4 nM 4-OHT,≤ 48 h
same,cell killing without inducer,[2]; absence of the small molecule inducer cocktail,did not induce cell killing
same,sensitivity to Estradiol,"[2]; day 5, Estradiol 2.2 pM",insensitivity
same,killing efficiency,"[2]; day 5, endoxifen 1 pM and higher",>= 95%
same,killing efficiency,"[2]; day 5, endoxifen as low as 0.001 pM",Strong killing efficiency
same,sensitivity to Estradiol,"[2]; over time, 2.2 pM Estradiol",insensitive
same,killing efficiency,[3]; 0.001 pM of 4-OHT,~80%
same,killing efficiency,[3]; down to 0.01 pM of 4-OHT,> 95%
same,"concentration of efficient killing, fold lower than the Ctrough of 4-OHT in humans",[3]; humans taking FDA approved daily dose of Tamoxifen,400 ×
same,killing efficiency and rate compared to the WT ERT2 safety switch,"[4]; 0.25 nM endoxifen and 0.04 nM 4-OHT, 2.5 nM endoxifen+0.4 nM 4-OHT","greater killing efficiency, and at a faster rate"
same,sensitivity to Estradiol,"[4]; 2.5 nM estradiol, long exposure times",modest activity at late time points
B2,4-OHT concentration at which mCherry reporter expression is activated,[5],about 25 nM
same,endoxifen concentration at which mCherry reporter expression is activated,[5],about 25 nM
B3,endoxifen concentration at which IL-12 expression is induced,[6],0.1 nM
same,fold activation and induced mCherry levels compared to WT (SB03422),[7],highest fold activation and induced mCherry levels
B4,endoxifen concentration at which IL-12 expression is induced,[6],0.1 nM
same,fold activation and induced mCherry levels compared to WT (SB03422),[7],highest fold activation and induced mCherry levels
B5,endoxifen concentration at which IL-12 expression is induced,[6],0.1 nM
same,fold activation and induced mCherry levels compared to WT (SB03422),[7],highest fold activation and induced mCherry levels
B6,endoxifen concentration at which IL-12 expression is induced,[6],0.1 nM
same,fold activation and induced mCherry levels compared to WT (SB03422),[7],highest fold activation and induced mCherry levels
